{"source": "IntAct's records for PubMed 20952573", "parents": {"B1": {"name": "Transcriptional regulatory protein RcsB (Escherichia coli (strain K12)), P0DMC7 (parent)", "chain": "MNNMNVIIADDHPIVLFGIRKSLEQIEWVNVVGEFEDSTALINNLPKLDAHVLITDLSMPGDKYGDGITLIKYIKRHFPSLSIIVLTMNNNPAILSAVLDLDIEGIVLKQGAPTDLPKALAALQKGKKFTPESVSRLLEKISAGGYGDKRLSPKESEVLRLFAEGFLVTEIAKKLNRSIKTISSQKKSAMMKLGVENDIALLNYLSSVTLSPADKD", "partner": "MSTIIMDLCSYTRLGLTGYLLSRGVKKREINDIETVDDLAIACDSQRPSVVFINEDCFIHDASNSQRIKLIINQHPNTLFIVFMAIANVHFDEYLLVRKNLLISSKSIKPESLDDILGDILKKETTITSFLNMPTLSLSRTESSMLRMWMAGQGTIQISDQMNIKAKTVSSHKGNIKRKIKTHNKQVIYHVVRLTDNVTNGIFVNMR"}}}
{"variants_of": "B1", "details": "with rcsa_ecoli rcsA"}
{"variant": "D56E", "effect of a mutation on the interaction": "decreasing interaction"}
